In article PMC5006282:

Columns and labels:
Experiment in all cases: pull-down MS
Details in all cases: 5' biotin on sense strand; DNA immobilised on streptavidin beads in 20 mM Tris-HCl pH 8.0, 200 mM NaCl, 0.5 mM EDTA, 0.03% NP40; protein binding buffer and temperature not in the …
[1] = biological target: Aiolos (Homo sapiens (Raji)) (UniProt Q9UKT9)
[2] = biological target: HCF-1 (Homo sapiens (Raji, Molt4)) (UniProt P51610)
[3] = biological target: Helios (Homo sapiens (Raji)) (UniProt Q9UKS7)
[4] = biological target: Ikaros (Homo sapiens (Raji, Molt4 nuclear extract)) (UniProt Q13422)
[5] = biological target: NFKB2 (NF-kappa B p100/p52) (Homo sapiens (Raji)) (UniProt Q00653)
Chain of UniProt Q00653 (Q00653 whole entry): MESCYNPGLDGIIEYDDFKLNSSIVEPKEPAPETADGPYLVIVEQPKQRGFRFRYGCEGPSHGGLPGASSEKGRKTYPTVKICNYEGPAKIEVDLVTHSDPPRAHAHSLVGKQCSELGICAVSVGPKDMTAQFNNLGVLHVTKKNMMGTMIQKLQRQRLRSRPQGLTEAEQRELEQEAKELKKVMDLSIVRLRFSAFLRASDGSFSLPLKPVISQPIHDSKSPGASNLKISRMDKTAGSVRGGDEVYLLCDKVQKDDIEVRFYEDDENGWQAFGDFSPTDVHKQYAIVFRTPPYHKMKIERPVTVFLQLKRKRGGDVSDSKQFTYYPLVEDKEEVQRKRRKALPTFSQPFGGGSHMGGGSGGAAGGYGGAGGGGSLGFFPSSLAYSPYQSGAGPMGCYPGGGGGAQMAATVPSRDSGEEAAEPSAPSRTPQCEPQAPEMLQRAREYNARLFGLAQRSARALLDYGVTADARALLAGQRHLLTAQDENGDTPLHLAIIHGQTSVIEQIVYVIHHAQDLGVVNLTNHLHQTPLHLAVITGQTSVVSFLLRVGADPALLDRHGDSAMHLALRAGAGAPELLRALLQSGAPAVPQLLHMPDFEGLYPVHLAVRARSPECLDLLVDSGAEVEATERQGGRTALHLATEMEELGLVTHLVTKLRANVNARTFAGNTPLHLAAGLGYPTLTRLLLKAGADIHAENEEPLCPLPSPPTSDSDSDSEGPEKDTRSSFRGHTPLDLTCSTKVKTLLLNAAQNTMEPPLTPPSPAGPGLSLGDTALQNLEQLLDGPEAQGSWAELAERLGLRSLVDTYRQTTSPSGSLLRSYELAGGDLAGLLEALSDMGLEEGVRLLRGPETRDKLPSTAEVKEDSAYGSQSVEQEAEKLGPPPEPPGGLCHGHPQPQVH

Chain of UniProt P51610 (P51610 whole entry): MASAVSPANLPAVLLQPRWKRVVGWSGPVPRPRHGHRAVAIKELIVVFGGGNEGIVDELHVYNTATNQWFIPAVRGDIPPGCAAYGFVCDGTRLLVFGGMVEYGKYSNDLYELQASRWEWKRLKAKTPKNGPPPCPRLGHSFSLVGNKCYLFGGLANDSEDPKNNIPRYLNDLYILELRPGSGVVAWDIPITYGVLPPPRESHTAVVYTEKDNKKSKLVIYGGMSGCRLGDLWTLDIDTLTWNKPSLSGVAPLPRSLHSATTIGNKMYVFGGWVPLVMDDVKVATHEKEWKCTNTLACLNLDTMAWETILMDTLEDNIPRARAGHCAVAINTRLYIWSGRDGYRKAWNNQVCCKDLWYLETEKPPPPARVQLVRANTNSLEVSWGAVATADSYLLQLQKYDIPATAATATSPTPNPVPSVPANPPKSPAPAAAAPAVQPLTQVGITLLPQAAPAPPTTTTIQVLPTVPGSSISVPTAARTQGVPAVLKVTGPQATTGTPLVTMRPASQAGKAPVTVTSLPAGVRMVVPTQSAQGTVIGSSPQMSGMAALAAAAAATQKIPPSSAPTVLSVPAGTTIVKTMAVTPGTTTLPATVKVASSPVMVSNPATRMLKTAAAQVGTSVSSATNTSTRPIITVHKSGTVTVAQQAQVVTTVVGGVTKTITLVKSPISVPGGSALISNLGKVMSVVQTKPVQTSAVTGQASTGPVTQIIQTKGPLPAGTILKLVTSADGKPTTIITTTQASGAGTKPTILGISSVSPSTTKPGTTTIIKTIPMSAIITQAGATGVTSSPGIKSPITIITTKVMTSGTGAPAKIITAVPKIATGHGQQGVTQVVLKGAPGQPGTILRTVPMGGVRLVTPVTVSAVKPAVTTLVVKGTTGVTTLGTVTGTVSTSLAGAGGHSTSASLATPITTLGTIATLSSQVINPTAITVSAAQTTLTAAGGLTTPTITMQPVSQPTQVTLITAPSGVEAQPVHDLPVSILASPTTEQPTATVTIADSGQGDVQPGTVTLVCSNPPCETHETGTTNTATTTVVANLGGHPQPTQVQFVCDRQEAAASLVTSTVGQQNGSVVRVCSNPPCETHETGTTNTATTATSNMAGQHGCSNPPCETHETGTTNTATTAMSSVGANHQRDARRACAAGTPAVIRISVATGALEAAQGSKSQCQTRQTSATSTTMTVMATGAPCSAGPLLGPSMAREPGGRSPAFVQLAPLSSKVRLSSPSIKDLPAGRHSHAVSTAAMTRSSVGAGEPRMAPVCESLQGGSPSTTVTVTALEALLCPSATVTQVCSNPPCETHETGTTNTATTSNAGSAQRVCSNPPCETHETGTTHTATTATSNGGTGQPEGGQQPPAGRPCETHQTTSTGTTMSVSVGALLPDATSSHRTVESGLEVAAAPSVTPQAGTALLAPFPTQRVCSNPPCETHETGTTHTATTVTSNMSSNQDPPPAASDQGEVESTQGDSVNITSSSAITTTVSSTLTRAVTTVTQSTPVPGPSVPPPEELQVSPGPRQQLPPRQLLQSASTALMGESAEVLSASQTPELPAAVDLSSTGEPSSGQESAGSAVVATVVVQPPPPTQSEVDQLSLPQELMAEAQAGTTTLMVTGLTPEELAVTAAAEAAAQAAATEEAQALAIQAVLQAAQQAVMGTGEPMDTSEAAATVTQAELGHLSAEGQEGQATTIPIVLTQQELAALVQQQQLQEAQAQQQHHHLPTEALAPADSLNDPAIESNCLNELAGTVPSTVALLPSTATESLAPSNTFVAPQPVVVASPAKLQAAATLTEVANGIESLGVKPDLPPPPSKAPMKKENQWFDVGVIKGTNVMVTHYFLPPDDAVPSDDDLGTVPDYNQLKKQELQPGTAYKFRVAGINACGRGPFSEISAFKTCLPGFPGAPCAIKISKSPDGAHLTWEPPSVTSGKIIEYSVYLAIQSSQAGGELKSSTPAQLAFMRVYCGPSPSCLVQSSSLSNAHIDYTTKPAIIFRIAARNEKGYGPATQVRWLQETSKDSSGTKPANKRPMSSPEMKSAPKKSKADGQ
Chain of UniProt Q9UKS7 (Q9UKS7 whole entry): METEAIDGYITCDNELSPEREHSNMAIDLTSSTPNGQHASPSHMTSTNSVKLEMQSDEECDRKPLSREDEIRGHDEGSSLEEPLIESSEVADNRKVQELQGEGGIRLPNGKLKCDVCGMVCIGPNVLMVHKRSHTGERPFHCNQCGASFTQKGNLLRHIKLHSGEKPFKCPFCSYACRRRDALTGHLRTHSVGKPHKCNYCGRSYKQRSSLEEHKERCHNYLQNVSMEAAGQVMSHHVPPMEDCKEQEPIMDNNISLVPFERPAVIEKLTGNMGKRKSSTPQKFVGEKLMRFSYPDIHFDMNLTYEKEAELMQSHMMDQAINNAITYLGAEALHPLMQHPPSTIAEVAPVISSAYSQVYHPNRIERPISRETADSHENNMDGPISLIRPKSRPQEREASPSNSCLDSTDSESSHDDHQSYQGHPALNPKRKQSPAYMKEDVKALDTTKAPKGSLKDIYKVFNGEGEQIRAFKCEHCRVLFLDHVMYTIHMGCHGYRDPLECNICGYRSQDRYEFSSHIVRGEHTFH
Chain of UniProt Q9UKT9 (Q9UKT9 whole entry): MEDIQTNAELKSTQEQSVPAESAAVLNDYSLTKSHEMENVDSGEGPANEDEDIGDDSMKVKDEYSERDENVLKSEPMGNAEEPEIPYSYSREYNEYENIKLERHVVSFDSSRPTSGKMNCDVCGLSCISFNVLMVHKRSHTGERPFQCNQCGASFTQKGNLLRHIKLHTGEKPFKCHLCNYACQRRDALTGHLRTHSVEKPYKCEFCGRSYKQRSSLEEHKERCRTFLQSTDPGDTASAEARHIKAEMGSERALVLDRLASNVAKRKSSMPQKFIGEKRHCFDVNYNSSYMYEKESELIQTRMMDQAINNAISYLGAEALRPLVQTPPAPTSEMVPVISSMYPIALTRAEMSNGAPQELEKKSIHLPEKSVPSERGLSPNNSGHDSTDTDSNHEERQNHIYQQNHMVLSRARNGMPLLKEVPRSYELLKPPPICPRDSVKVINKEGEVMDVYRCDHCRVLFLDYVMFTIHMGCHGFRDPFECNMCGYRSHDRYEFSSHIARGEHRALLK
Chain of UniProt Q13422 (Q13422 whole entry): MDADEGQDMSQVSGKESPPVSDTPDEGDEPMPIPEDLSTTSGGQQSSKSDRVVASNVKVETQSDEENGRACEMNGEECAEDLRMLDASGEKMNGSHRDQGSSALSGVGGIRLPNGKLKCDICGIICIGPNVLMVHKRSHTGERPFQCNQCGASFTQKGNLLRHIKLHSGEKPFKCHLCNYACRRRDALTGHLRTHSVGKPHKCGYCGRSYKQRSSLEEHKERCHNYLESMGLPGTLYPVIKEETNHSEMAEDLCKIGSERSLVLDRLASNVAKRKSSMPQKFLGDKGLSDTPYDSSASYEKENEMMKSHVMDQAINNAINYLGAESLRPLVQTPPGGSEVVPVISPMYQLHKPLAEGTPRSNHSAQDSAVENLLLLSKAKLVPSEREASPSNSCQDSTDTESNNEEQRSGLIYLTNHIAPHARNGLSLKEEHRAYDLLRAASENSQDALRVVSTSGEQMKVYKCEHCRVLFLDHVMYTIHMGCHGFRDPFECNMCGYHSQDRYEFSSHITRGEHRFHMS

Which results are given for “CAAAACTGCAGGCAACTAGAACTACATTTCCCGGCGTGATTTGCTGCGGAACGAACTACATCTCCCGGCAGGCTGCG (double strand) [Tandem M4 WT]”?
binding signal (SILAC ratio WT/MT) [1]: > 100; binding signal (SILAC ratio WT/MT) [2]: 19; binding signal (SILAC ratio WT/MT) [3]: > 100; binding signal (SILAC ratio WT/MT) [4]: > 100; binding signal (SILAC ratio WT/MT) [5]: 31.8
